Results reported in US6950754.

Target: GCN4-p1
Experiment: size exclusion chromatography, self-association

Sequence of GCN4-p1 (peptide; modification not given) (chain, as listed by the source): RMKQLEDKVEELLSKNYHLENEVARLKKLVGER

**Q.** “GCN4-p1 (peptide; modification not given)” was tested. Which oligomerization state (N) did it give?
**A.** 2
